Where a chain is given by its changes, count along the chain named. Names and notes keep the numbering of the source.

B1: SA301a HC-Y96L (antibody, name in Kabat numbering, V domains shown)
VH: QVQLQESGPGLVKPSQTLSLTCTVSGYSITSDYNSHWIRQPPGKGLEWIGYIHYSGSTNYNPSLKSRVTISRDTSKNQFSLKLSSVTAADTAVYYCARNLGSIYVNYFDYWGQGTLVTVSS
VL: EIVLTQSPATLSLSPGERATLSCSASSSVSYMYWYQQKPGQAPRPLIYRTSNLASGIPARFSGSGSGTDFTLTISSLEPEDFAVYYCQQYHSYPTFGGGTKVEIK
notes: IgG1 kappa
B2: SA301a HC-N95R (antibody, name in Kabat numbering, V domains shown)
VH: B1 VH with N99R, L100Y
VL: B1 VL
notes: IgG1 kappa
B3: SA301a HC-S98Q (antibody, name in Kabat numbering, V domains shown)
VH: B1 VH with L100Y, S102Q
VL: B1 VL
notes: IgG1 kappa
B4: SA301a HC-S98Y (antibody, name in Kabat numbering, V domains shown)
VH: B1 VH with L100Y, S102Y
VL: B1 VL
notes: IgG1 kappa
B5: SA301a HC-Y96R (antibody, name in Kabat numbering, V domains shown)
VH: B1 VH with L100R
VL: B1 VL
notes: IgG1 kappa
B6: SA301a HC-Y96E (antibody, name in Kabat numbering, V domains shown)
VH: B1 VH with L100E
VL: B1 VL
notes: IgG1 kappa
B7: SA301a HC-G97V (antibody, name in Kabat numbering, V domains shown)
VH: B1 VH with L100Y, G101V
VL: B1 VL
notes: IgG1 kappa
B8: SA301a HC-S98T (antibody, name in Kabat numbering, V domains shown)
VH: B1 VH with L100Y, S102T
VL: B1 VL
notes: IgG1 kappa
B9: SA301a HC-Y96I (antibody, name in Kabat numbering, V domains shown)
VH: B1 VH with L100I
VL: B1 VL
notes: IgG1 kappa
B10: SA301a HC-S98P (antibody, name in Kabat numbering, V domains shown)
VH: B1 VH with L100Y, S102P
VL: B1 VL
notes: IgG1 kappa
B11: SA301a HC-Y96N (antibody, name in Kabat numbering, V domains shown)
VH: B1 VH with L100N
VL: B1 VL
notes: IgG1 kappa
B12: SA301a HC-N95A (antibody, name in Kabat numbering, V domains shown)
VH: B1 VH with N99A, L100Y
VL: B1 VL
notes: IgG1 kappa
B13: SA301a HC-Y96P (antibody, name in Kabat numbering, V domains shown)
VH: B1 VH with L100P
VL: B1 VL
notes: IgG1 kappa
B14: SA301a HC-N95Q (antibody, name in Kabat numbering, V domains shown)
VH: B1 VH with N99Q, L100Y
VL: B1 VL
notes: IgG1 kappa
B15: SA301a HC-Y96A (antibody, name in Kabat numbering, V domains shown)
VH: B1 VH with L100A
VL: B1 VL
notes: IgG1 kappa
B16: SA301a HC-S98I (antibody, name in Kabat numbering, V domains shown)
VH: B1 VH with L100Y, S102I
VL: B1 VL
notes: IgG1 kappa
B17: SA301a HC-Y96K (antibody, name in Kabat numbering, V domains shown)
VH: B1 VH with L100K
VL: B1 VL
notes: IgG1 kappa
B18: SA301a HC-S98K (antibody, name in Kabat numbering, V domains shown)
VH: B1 VH with L100Y, S102K
VL: B1 VL
notes: IgG1 kappa
B19: SA301a HC-S98H (antibody, name in Kabat numbering, V domains shown)
VH: B1 VH with L100Y, S102H
VL: B1 VL
notes: IgG1 kappa
B20: SA301a HC-S98N (antibody, name in Kabat numbering, V domains shown)
VH: B1 VH with L100Y, S102N
VL: B1 VL
notes: IgG1 kappa
B21: SA301a HC-Y96V (antibody, name in Kabat numbering, V domains shown)
VH: B1 VH with L100V
VL: B1 VL
notes: IgG1 kappa
B22: SA301a HC-S98A (antibody, name in Kabat numbering, V domains shown)
VH: B1 VH with L100Y, S102A
VL: B1 VL
notes: IgG1 kappa
B23: SA301a HC-Y96G (antibody, name in Kabat numbering, V domains shown)
VH: B1 VH with L100G
VL: B1 VL
notes: IgG1 kappa
B24: SA301a HC-Y96S (antibody, name in Kabat numbering, V domains shown)
VH: B1 VH with L100S
VL: B1 VL
notes: IgG1 kappa
B25: SA301a HC-Y96T (antibody, name in Kabat numbering, V domains shown)
VH: B1 VH with L100T
VL: B1 VL
notes: IgG1 kappa
B26: SA301a HC-N95G (antibody, name in Kabat numbering, V domains shown)
VH: B1 VH with N99G, L100Y
VL: B1 VL
notes: IgG1 kappa
B27: SA301a HC-Y96H (antibody, name in Kabat numbering, V domains shown)
VH: B1 VH with L100H
VL: B1 VL
notes: IgG1 kappa
B28: SA301a HC-S98G (antibody, name in Kabat numbering, V domains shown)
VH: B1 VH with L100Y, S102G
VL: B1 VL
notes: IgG1 kappa
B29: SA301a HC-Y96Q (antibody, name in Kabat numbering, V domains shown)
VH: B1 VH with L100Q
VL: B1 VL
notes: IgG1 kappa
B30: SA301a HC-S98D (antibody, name in Kabat numbering, V domains shown)
VH: B1 VH with L100Y, S102D
VL: B1 VL
notes: IgG1 kappa
B31: SA301a HC-Y96F (antibody, name in Kabat numbering, V domains shown)
VH: B1 VH with L100F
VL: B1 VL
notes: IgG1 kappa
B32: SA301a light chain variant V29T (antibody, V domains shown)
VH: B1 VH with L100Y
VL: B1 VL with V29T
B33: SA301a light chain variant S30L (antibody, V domains shown)
VH: B1 VH with L100Y
VL: B1 VL with S30L
B34: SA301a light chain variant S27H (antibody, V domains shown)
VH: B1 VH with L100Y
VL: B1 VL with S27H
B35: SA301a light chain variant V29Q (antibody, V domains shown)
VH: B1 VH with L100Y
VL: B1 VL with V29Q
B36: SA301a light chain variant S27Y (antibody, V domains shown)
VH: B1 VH with L100Y
VL: B1 VL with S27Y
B37: SA301a light chain variant V29E (antibody, V domains shown)
VH: B1 VH with L100Y
VL: B1 VL with V29E
B38: SA301a light chain variant S30F (antibody, V domains shown)
VH: B1 VH with L100Y
VL: B1 VL with S30F
B39: SA301a light chain variant S27G (antibody, V domains shown)
VH: B1 VH with L100Y
VL: B1 VL with S27G
B40: SA301a light chain variant S27L (antibody, V domains shown)
VH: B1 VH with L100Y
VL: B1 VL with S27L
B41: SA301a light chain variant V29P (antibody, V domains shown)
VH: B1 VH with L100Y
VL: B1 VL with V29P
B42: SA301a light chain variant S30D (antibody, V domains shown)
VH: B1 VH with L100Y
VL: B1 VL with S30D
B43: SA301a light chain variant S27D (antibody, V domains shown)
VH: B1 VH with L100Y
VL: B1 VL with S27D
B44: SA301a light chain variant S27I (antibody, V domains shown)
VH: B1 VH with L100Y
VL: B1 VL with S27I

The target in the first experiment is T1, human IL-18BP (human, UniProt O95998 31-194).
T1 construct: UniProt printed as 095998; also called hIL-18BP
T1 sequence: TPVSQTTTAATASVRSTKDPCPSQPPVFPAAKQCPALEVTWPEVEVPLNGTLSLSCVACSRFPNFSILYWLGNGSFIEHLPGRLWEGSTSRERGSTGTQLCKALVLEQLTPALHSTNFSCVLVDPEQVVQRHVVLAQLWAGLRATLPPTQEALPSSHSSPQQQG
Nature of the experiment: BLI, apparent KD.
As to B1, the Kd was 1.08 nM. With B2, the Kd is 0.02 nM. B3: the Kd is 12.3 nM. Consider B4, for which the Kd is 0.02 nM. Same read-out and setting: for B5 the value was 0.6 nM. Still for that read-out and setting: for B6 the value was 0.31 nM; for B7, 4.96 nM. On the same count and under the same terms, for B8 the value was 26.9 nM. On to B9, for which the Kd was found to be 4.02 nM. Consider B10, for which the Kd is 0.55 nM.

For B11, the Kd was 2.8 nM.

Consider B12, for which the Kd was 46.1 nM. For the molecule B13, the Kd stood at 0.46 nM.

B14: the Kd was found to be 5.33 nM. As for B15, the Kd was 0.47 nM. As to B16, the Kd was 2.1 nM. Consider B17, for which the Kd stood at 15.2 nM.

For B18, the Kd is 5.41 nM. Still for that read-out and setting: for B19 the value was 6.42 nM. As to B20, the Kd came to 2.98 nM. In the case of B21, the Kd amounted to 1.68 nM. Take B22: the Kd amounted to 2.29 nM. In the case of B23, the Kd was 2.5 nM. As for B24, the Kd was found to be 0.87 nM. As to B25, the Kd stood at 0.61 nM. On to B26, for which the Kd was determined as 0.17 nM. Take B27: the Kd turned out to be 1.24 nM. As for B28, the Kd is 2.57 nM. Still for that read-out and setting: for B29 the value was 0.65 nM; for B30, 0.99 nM; for B31, 0.13 nM.

The target in the next experiment is T2, human IL-18BP (human, UniProt O95998 31-194).
T2 construct: also called hIL-18BP; Mature Human Isoform A
T2 sequence: T1 sequence
Nature of the experiment: BLI, apparent KD, one conc. In general terms: BLI is a label-free optical method that tracks binding on a fibre tip over time.
B32: the Kd came out at 0.32 nM. As to B33, the Kd amounted to 0.49 nM. Consider B34, for which the Kd was 0.53 nM. Take B35: the Kd was found to be 0.3 nM. B36: the Kd was found to be 0.37 nM.

With B37, the Kd amounted to 0.34 nM. Take B38: the Kd came to 0.35 nM. Consider B39, for which the Kd came to 0.49 nM. Turning to B40, the Kd stood at 0.44 nM. On to B41, for which the Kd amounted to 0.38 nM. Consider B42, for which the Kd was 0.31 nM.

As to B43, the Kd came out at 0.43 nM. Take B44: the Kd turned out to be 0.5 nM.

(Values after patent US20250368745A1 (published 2025).)
